Test results as given in patent US20260209317A1 (US Dept. of Health and Human Services, published 2026).

Target: T1, SARS-CoV-2 WA-1 RBD protein (SARS-CoV-2, UniProt P0DTC2 319-541)
T1 construct: domain: RBD
Assay: ELISA, plate coated with WA1 RBD

B1: B2-269.1 (antibody, V domains shown)
VH: EVQLVESGGGLVQPGGSLRLSCAASGITVSSNYMSWVRQPPGKGLDWVSLIFSGGSTYYADSVKGRFTISRDNSKNTLYLQMNSLRAEDTAVYYCARVGVAVAGTDYDIWGQGTMVTVSS
VL: DIQMTQSPSSLSASVGDRVTITCQASQDINKYLNWYQQKPGKAPKLLIYDASNLETGVPSRFSGSGSGTDFTFTISSLQPEDIATYYCLHYENLPLSFGGGTKVEIK
  EC50 (read off the curve): ~4 ng/mL
